{
  "source": "the nanobody polyreactivity screen of Harvey et al. (2022)",
  "data": [
    {"assay": "yeast display, Sf9 membrane polyspecificity reagent, FACS + sequencing; frameworks hold sequencing errors", "procedure,_shortened": "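Polyreactivity labels are assigned by the sorting gate from which each nanobody was recovered. The gates were low and high (top ~1%), set on anti-HA fluorescence for expression and streptavidin fluorescence for reagent binding. Before sorting, galactose-induced (36–48 hours) yeast display cells were stained for 1 hour at 4 °C with 10% biotinylated, detergent-solubilized Sf9 membrane reagent.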", "values": [
      {"sequence": "QVQLVESGGGLVQAGGSLRLSCAASGRTFYGYAMGWYRQAPGKERELVAAISFSGGRTYYADSVKGRFTISRDNAKNTVYLQMNSLKPEDTAVYYCNRGLYPFDWVQGTQVTVSS", "polyreactivity (PSR sort gate)": "high polyreactivity"},
      {"sequence": "QVQLVESGGGLVQAGGSLSLSCAASGSILPYNTMGWDRQAPGKERELVAAITSGVGSTYADSVKGRFTISRDNAKNTVYLQMNSLKPEDTAVYYCNASESAIPIGDLGDYWGQGTQVTVSS", "polyreactivity (PSR sort gate)": "low polyreactivity"},
      {"sequence": "QVQLVESGGGLVQAGGSLRLSCAASGRTFYYNTMGWYRQAPGKERELVAALSSRGGTTSYADSVKGRFTISRDNAKNSVYLQMNSLKPEDTAVYYCNAETYRRGSYDYWGQGTQVTVSS", "polyreactivity (PSR sort gate)": "high polyreactivity"},
      {"sequence": "QVQLVESGGGLVQAGGSLRLSCAASGSIFFWYTRGWYRQEPGKERQLVATITGSGSSTTYADSVKGRFTISRDNAKNSVYLQMNSLKPEDTAVYYCAAADIIDHSFPYDYWGQGTQVTVSS", "polyreactivity (PSR sort gate)": "low polyreactivity"},
      {"sequence": "QVQLVESGGGLVQAGGSLRLSCAASGFTFSYYAMGWYRQAPGKERELVAAISGSGTRTYYADSVKGRFTISRDNAKNTVYLQMNSLKPEDTAVYYCAADLYVTYDYWGQGTQVTVSS", "polyreactivity (PSR sort gate)": "high polyreactivity"},
      {"sequence": "QVQLQESGGGLVQAGGSMRLSCAPRGSIYELRPMGWNRQAPGKESELVAGISTGGSTNYADCVIGRFTISRDNAKYSVYLQMNSLKPEDSAVYYCAAASYGEGTYDYWGQGTQVTVRS", "polyreactivity (PSR sort gate)": "high polyreactivity"},
      {"sequence": "QVQLVESGGGLVQAGGSLRLSCAASGRIFRWNAMGWYRQAPGKERELVAVISSGGSTNYADSVKGRFTISRDNAKNTVYLQMNSLKPEDTAVYYCAADEGYVWPYYGWGFGKYDYWGQGTQVTVSS", "polyreactivity (PSR sort gate)": "low polyreactivity"},
      {"sequence": "QVQLEESGGGLVQGGGSLRLSCAASGSNFQDNAMGWYRQAPGKERELVAAITGRDASTYYADSVKGRFTISRDNAKNTVYLQLNCLKPEDTAVDYCYWGQGTQVTVSS", "polyreactivity (PSR sort gate)": "low polyreactivity"},
      {"sequence": "QDQLVESGGGLVQAGGSLRLSCAASGRIFPGNAMGWYIHEPGKERELVADITSGGSTNYADSVNGRFTISRDNAKNSVYLQMNSLKPEDTAVYYCAVGQIYQTSDHRLQYVYWGQGTQVTVSS", "polyreactivity (PSR sort gate)": "low polyreactivity"},
      {"sequence": "QVQLVESGGGLVQEGGSLRLSCAASGRTIIQNGMGWYRQAPGKERELVAAISYRGGTTSYADSVKGRFTISRDNAKNTVYLQMNSLKPEDTAVYSCAAVGHTIYATPTYYYWGQGTQVTVSS", "polyreactivity (PSR sort gate)": "high polyreactivity"},
      {"sequence": "QVQLVESGGGLVQAGGSLRLSCAASGSIFGGNAMGWSRQAPGKERELVAVITSGGSTYYADSVKGRFTISRDNAKNTVYLQMNSLKPEDTAVYYCNVDRLARKAHYDYWGQGTQVTVSS", "polyreactivity (PSR sort gate)": "high polyreactivity"},
      {"sequence": "QVQLVESGGGLVQAGCSLRLSCAASGSISSFYAMGWYRQAPGKERELVAGITSGGSTNYADSVKGRFTISRDNAKNTVYLQMNSLKPEDTAVYYCAAVYKGAGTHFDVFVKEFDYWGLGTQVTVSS", "polyreactivity (PSR sort gate)": "low polyreactivity"},
      {"sequence": "QVQLVESGGGLVQAGGSFRLSCAASGSIFDGYAMGWYRQAPGTERELVAAISSGGDSTYYADSVKGRFTISRDNAKNTVYLQMNSLKPEDTAVYYCNADSLVGHSYDYWGQGTQVTVSS", "polyreactivity (PSR sort gate)": "low polyreactivity"},
      {"sequence": "QVQLVESGGGLVQAGGSLRLTCAASGSTFRLYAMGWYRQAPGKERELVAGISRTGTSTYYADSVKGRFTISRDNAKTTVFLQMNSLKPEDTAVYYCAASIGGGSYWGQGTQLTVSS", "polyreactivity (PSR sort gate)": "high polyreactivity"},
      {"sequence": "QVQLVESGGGLVQAGGSLRLSCAASGRIFQYYAMGWYRQAPGKERELVAAINSSGGRTYYADSVKGRFTISRDTAKNTVYLQMNSLTPEDTAVNSCNAVLSTRGMDYWGQGTQVTVSS", "polyreactivity (PSR sort gate)": "high polyreactivity"},
      {"sequence": "QVQLVESGGGLVQAGGSLRLSCAASGFIFSTNAMGWYRQAPGKERELVAAISASGGITYYADSVKGRFTISRDNAKNTVYLQMNSLKPEDTAVYYCAVYYYSPGNNIYGYWGQGTQVTVSS", "polyreactivity (PSR sort gate)": "high polyreactivity"},
      {"sequence": "QVQLVESGGGLVQAGGSLRLSCAASGGIFNSYTMGWYRQAPGKERELVAAITKRGGSTYYADSVKGRFTISRYNAKNTVYLQMNSLKPEDTAVYYCAAGATVQFDYWGQGTQVTVSS", "polyreactivity (PSR sort gate)": "high polyreactivity"},
      {"sequence": "QVQLVESGGGLVQAGGSLRLICAASGRTFVYYAMGWYRQAPGKERELVAAISSSGGSTSYADSVKGRFTISRDNAKNTVYLQMNSLKPEDTAFYYCAADVSVSGYYYWGQGTQVTVSS", "polyreactivity (PSR sort gate)": "high polyreactivity"},
      {"sequence": "QVQLVESGGGLVQAGGSLRLSCAASGITFEYYAMGWYRQAPGKERELVAAIDTGGSTNYADSVKGRFTISRDNAKNTVYLQMNSLKPEDTAVYYCAADWSWWDGEDYHFEYDYWGQGTQVTVSS", "polyreactivity (PSR sort gate)": "low polyreactivity"},
      {"sequence": "QVQLVESGGGLVQAGGSLRISCAASGSIYSAYVMGWYRQAPGKERELVSAITRSGGSTYYADSVKGRFTISRDNAKNTVYFQMNSLKPEDTAVYYCAVDYLLHYYSYIEDYWGQGTQVTVSS", "polyreactivity (PSR sort gate)": "low polyreactivity"},
      {"sequence": "QFQIVESGGGLVQAGGSLRLSCAASGYTFTGNAMGWYRQATGKEREFVAGITWRTGRTYYADSVKGRFTISRDNAKNSVYVLMNSLKPEDTAVYYCNKDHQRRYFWSYDYWGQGTLVTVSS", "polyreactivity (PSR sort gate)": "low polyreactivity"},
      {"sequence": "QVQLVESGGGLVQAGGSLRLSCAASGYTFIDYAMGWYRQAPGKETELVAAITRGGRTNYADSVKGRFTISRDNAKNTVYLQMNSLKPEDTAVYYCAAALRRRRADFDYWGQGTQVTVSS", "polyreactivity (PSR sort gate)": "high polyreactivity"},
      {"sequence": "QVNLVESGGGLVQAGGSLRLSCAAYGRTFRTNAMRCNRQEPGKERELFAAITYSGDSTYYADSVKGRFTISRDNEKNTVYLQMNSLKPEDTAVYYCNARLLSGPGYDYWRQGTQVTVSS", "polyreactivity (PSR sort gate)": "low polyreactivity"},
      {"sequence": "QVQLVETGGGLVQAGGSLRLSCAASGGIFYPNDMGWYRQAPGKEREFVAAITSSSGSTYADSVKGRFTISRDNAKNTVYLQMNSLKPEDTAVYYCATPPDDKGGGYLGYDYWGQGTQVTVSS", "polyreactivity (PSR sort gate)": "low polyreactivity"},
      {"sequence": "QVQLVESGGGLVQAGGSLRLSFAASGIIFDLYAMGWYRQAPGKERELVAAITRSVGSTYYADSVKGRFTISRDNAKNTVYLQMNSLKPEDTAVYFCAAVRFAYGYTYDYWGQGTQVTVSS", "polyreactivity (PSR sort gate)": "high polyreactivity"},
      {"sequence": "QVQLVESGGGLVQAGGSLRLSCAASGLIIPFYAMGWYRQAPGKERELVAAISWSAGSTYYADSVKGRFTISRDNAKNTVYLQMNCLKPEDTAVYYCAATAYYYYDYDYWGQGTQVTVSS", "polyreactivity (PSR sort gate)": "low polyreactivity"},
      {"sequence": "QVQLVESGGGLVQAGGSLRLSCAASGSTCDTNVMGWYRQAPGKERELVAAITTSSSRTYYADSVKGRFTISRDNAKNTGYLQMNSLKPEDTAVYDCAARIHGSWSFDYWGQGTQVTVSS", "polyreactivity (PSR sort gate)": "low polyreactivity"},
      {"sequence": "QVQLVESGGGLVQAGGSLRVSCAASGIIFGSYPMGWYRQAPGTERELVATISFSGGTTNYADSVKGRFPISRDNATTPVYLQMNSLTPEDTAVYYCAARPAPATGKLDYWGQGTQETVSS", "polyreactivity (PSR sort gate)": "low polyreactivity"},
      {"sequence": "QVQLVESGGGLVQAGGSLRLSCAPSGSIFNRNVMGWYRQAPGKERELVAAITRGGRTSYADSVKGRFTISRDNAKNTVYLQMNSLKPEDTAVYYCAARRGYWVVYWGQGTQVTVSS", "polyreactivity (PSR sort gate)": "high polyreactivity"},
      {"sequence": "QVQLVESGGGLVQAGGSLRISCAASGCTFSFNAMGWYRPAPGKERELVAAITTADSTYYADSVKGRFTISRDNAKNTGYFQMNSLKPEDTAVYYCAADAYWEYDYWGQGTQVTVSS", "polyreactivity (PSR sort gate)": "low polyreactivity"},
      {"sequence": "QVQLVESGGGLVQAGGSLRLSCAASGRTFRYYAMGWYRQAPGKEREFVAAITKRGGSTYYADSVKGRFTISRDNAKNTVYLQMNSLKPEDTAVYYCAAYPAAQFSTFSYDSWGQGTQVTVSS", "polyreactivity (PSR sort gate)": "high polyreactivity"},
      {"sequence": "QVQLVESGGGLVQAGGSLRLSCAASGRTFYIYAMGWYRQAPGKERELVAGITYSGGRTYYADSVKGRFTISRDNAKNTVYLQMNSLKPEDTAVYYCAARPYLTTEGPYNYWGQGTQVTVSS", "polyreactivity (PSR sort gate)": "low polyreactivity"},
      {"sequence": "QVQLVESGGGLVQAGGSLRLSCAASGSTFTRYGMGWYRQAPGKERELVAAITTSGSSTYYADSVKGRFTISRDNAKNTVYLQMNSLKPEDTAVYYCAADWSSWGFDYWGQGTQVTVSS", "polyreactivity (PSR sort gate)": "low polyreactivity"},
      {"sequence": "QVQLVESGGGLVQAGGSLRLSCAASGSTLGSNAMGWYRQAPGKERELVAAITWSGGTTYYADSVKGRFTISRDNAKNTVYLQMNSLKPEDTAVYYCATGQSVIYRYEYWGQGTQVSVSS", "polyreactivity (PSR sort gate)": "low polyreactivity"},
      {"sequence": "QVQLVESGGGLVQAGGSLRLSCAASGSTFRWYTMGWYRQAPGKERELVAAITASGGSTFYADSVKGRFTISRDNAKNTVYLQMNSLKPEDTAVYYCAAVNRPRPRRSDYWGQGTQVTVSS", "polyreactivity (PSR sort gate)": "high polyreactivity"},
      {"sequence": "QVQLEESGGALVQAGGSLRLSGAASVSTFAYYAMGWYRQAPGKERELVAAISWSGGSTYYADSVKGRFTISRDNAKNTVYLLMNSLKPEDTAVYYCNKRNVLDYDYWGQGTQVTVSS", "polyreactivity (PSR sort gate)": "low polyreactivity"},
      {"sequence": "QVQLVESGGGLVQAGGSLRLSCAASGSTFGWYAMGWYRQAPGKERELVAAISTSGGSSYYADSVKGRFTISRDNAKNTVYLQMNSLKPEDTAVYYCNGYYRRYSITFDRYDYWGQGSQVTVSS", "polyreactivity (PSR sort gate)": "high polyreactivity"},
      {"sequence": "QVQLVESGGRLVQAGGSLRLSCAASGSTFDNNAMGWYRQAPGKEREFVAAITYSGGGSTSYADSVKGRFTISRDNAKNTVYLQMNSLKAEDTAVYFCAARDFETDGYTLVAYIYWGQGSQVTVSS", "polyreactivity (PSR sort gate)": "low polyreactivity"},
      {"sequence": "QVQLVESGGGLVQAGGSLRLSCAASGSIFAYYAMGWYRQPPGKERELVAAISYSVDGTYYADSVKGRFTISRDNAYNTVYLQMNSLKPEDTAVYYCATQIYPLDFYQGDWNDYWGQGTQVTVSS", "polyreactivity (PSR sort gate)": "low polyreactivity"},
      {"sequence": "QVQLVESGGGLVQAGGSLRLSCAASGSTFQYYAMGWYRQAPGKERELVAAISAGGTRTYYADSVKGRFTISRDNAKNTVYLQMNSLKPEDPAVYYCNADDLHFVARYDYWGQGTQVTVSS", "polyreactivity (PSR sort gate)": "low polyreactivity"},
      {"sequence": "QVQLVESGVGLVQAGGSLRLSCAASGSTFGTYDMGWFRQAPGKERELVAAITWIGDTTYYADSVKGRFTISRDNAKNTVYLQMNSLIPEDTAVYYCAAEPNYQYYGPLGYDYWGQGTQVTVSS", "polyreactivity (PSR sort gate)": "low polyreactivity"},
      {"sequence": "QVQLVESGGGLVQAGGSLRLSCAASGSIFEPNAMGRYRQAPGKEREFVAAISGSGGSTYYADSVKGRFTISRDNAKNTVYLQMNSLKPEDTAVYYCATRGKRSYFRTFYYWGEGTQVTVSS", "polyreactivity (PSR sort gate)": "high polyreactivity"},
      {"sequence": "QVQLVESGGGFVQAGGSLPLSCAASGRTFGPYAMRWYRQAPGKERELVAAISSSDGSTYYADSVKGRFTISRDNAKNTVYLQMNSLKPEDTAVYYCNARYYLWSTTRWYGYDYWGQGTQVTVSS", "polyreactivity (PSR sort gate)": "high polyreactivity"}
    ]}
  ]
}
